This note sets out measurements from article PMC9945983 (Proceedings of the National Academy of Sciences of the …, 2023).

The series “SEC-MALS” deals with the molecule itself. Briefly: SEC-MALS. For orientation: Size exclusion chromatography separates by hydrodynamic size, large species first.
The target in series [1] is T1, PARC6^685–819 as part of the PARC6^685–819–PDV1^263–272 fusion protein (Arabidopsis thaliana, UniProt Q8VY16 685-819).
T1 sequence (looked up): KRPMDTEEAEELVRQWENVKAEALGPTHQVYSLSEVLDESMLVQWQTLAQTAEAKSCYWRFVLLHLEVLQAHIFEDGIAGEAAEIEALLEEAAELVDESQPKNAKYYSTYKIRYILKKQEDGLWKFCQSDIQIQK
Briefly: crystal structure.

B1: PARC6^640–819 (PARC6C), C-terminal domain of PARALOG OF ARC6 (domain or fragment, Arabidopsis thaliana, UniProt Q8VY16 640-819, looked up)
chain: NGIVGNIKVLIDMLKMHCGEHPDALYLKSSGQSATSLSHSASELHKRPMDTEEAEELVRQWENVKAEALGPTHQVYSLSEVLDESMLVQWQTLAQTAEAKSCYWRFVLLHLEVLQAHIFEDGIAGEAAEIEALLEEAAELVDESQPKNAKYYSTYKIRYILKKQEDGLWKFCQSDIQIQK
modifications: intramolecular disulfide bond C657-C741 under oxidized conditions
As usually defined, the stoichiometry N is a count of units in the complex or per binding partner. For the molecule B1, the “stoichiometry N” value in the series “SEC-MALS” stood at 2.

As to DHLDVMMARG (peptide, UniProt Q9FK13 263-272, looked up) [PDV1C (PDV1^263–272) as part of the PARC6^685–819–PDV1^263–272 fusion protein], the binding result in series [1] is “binds”.
